In patent US20100111941A1, “METHODS FOR TREATING CANCER” (priority 2006, published 2010):

Tests used:
[1] = test system: HCT116 tumor xenografts (human colorectal cancer cells); conditions: for tumor weight reduced by, compared to vehicle control: day 14, rNAPc2/pro 300 μg/kg daily IP, 5-FU 10 mg/kg every-other-day IP, AVASTIN 0.5 mg/kg twice-weekly IP, 14 days, 6 mice/group
Description: To determine the effect of rNAPc2/pro in combination with 5-fluorouracil (5-FU) in colorectal cancer, a murine xenograft colorectal tumor model was used. Human colorectal cancer cells (HCT116) were cultured in DMEM medium supplemented with 10% fetal bovine serum (FBS), harvested at log growth phase, enumerated and resuspended in HBSS buffer. Eight to ten week old female nude mice (NU/NU) were inoculated subcutaneously with 1×10^7 cells/mouse in a volume of 100 μl. Tumors were allowed to develop to an average size of 50 to 100 mm^3 before the treatment started (defined as day 0). HCT116 tumor xenograft-bearing mice were randomized into various treatment conditions and the treatment regimens lasted for 14 days.
The mice were treated as follows (6 mice/group):
2)rNAPc2/pro (300 μg/kg, daily IP injection for 14 days);
3) LOVENOX® (1.5 mg/kg, daily IP injection for 14 days);
4) 5-FU (10 mg/kg, every-other-day IP injection for 14 days);
5) AVASTIN® (0.5 mg/kg, twice-weekly IP injection for 14 days);
10) LOVENOX®+AVASTIN®; and
The mice were monitored every-other-day for body weight, signs of morbidity (i.e., hemorrhage) and mortality. On day 14, mice were extirpated for HCT116 tumor xenografts and the tumors were weighed and measured. Tumor size was calculated as follows: tumor volume (size)=(length)×(width^2)/2 (mm^3).

[2] = test system: Human colorectal cancer cells (HCT116); test: murine colorectal cancer-hepatic metastasis mouse model (HCT116); format: in vivo, nude mice (NU/NU); conditions: for Hepatic metastasis-free events: rNAPc2/pro 300 μg/kg daily IP for 28 days, CPT-11 100 mg/kg once-weekly IP for 4 weeks, livers removed day 42, 8 mice/group
Description: To determine the effect of rNAPc2/pro in treating hepatic tumor metastasis, a murine colorectal cancer-hepatic metastasis mouse model was used.
(§1) The mice were treated as follows (8 mice/group):
2) HCT116/vehicle control;
3) HCT116/rNAPc2/pro (300 μg/kg, daily IP injection for 28 days);
4) HCT116/CPT-11 (100 mg/kg, once-weekly IP injection for 4 weeks); and
On day 42, the livers were surgically removed, weighed and the number of liver surface metastases were counted in a blinded fashion. The other internal organs were examined for signs of hemorrhage. […] In some of the mice, no hepatic metastases were observed (Table 2).

[3] = test system: lung carcinoma tumors and melanoma tumors; conditions: mouse models; Hembrough et al., Cancer Res. 63:2997-3000 (2003); cited from earlier work
fVIIa/TF complex = molecular target: T1, fVIIa/TF complex (Homo sapiens, UniProt P08709+P13726); conditions: when fXa, or a catalytically active or inactive derivative thereof, is present; cited from earlier work
T1 construct: Lyophilized, purified, recombinant human fVlla is reconstituted in HBS

[4] = test system: Murine colorectal cancer cells (CT26); test: murine colorectal cancer-pulmonary metastasis mouse model (CT26); format: in vivo, BALB/c mice; conditions: for Number of mice with no observable lung surface metastases: 8 mice/group
Description: To determine the effect of rNAPc2/pro in treating pulmonary tumor metastasis, a murine colorectal cancer-pulmonary metastasis mouse model was used. […] Nine to eleven week old female syngenic BALB/c mice were inoculated via tail vein injection with 1×10^6 cells/mouse in a volume of 100 μl (defined as day 0).
as §1
3) CT26/rNAPc2/pro (10 μg/kg/day);
4) CT26/rNAPc2/pro (30 μg/kg/day);
5) CT26/rNAPc2/pro (100 μg/kg/day);
6) CT26/rNAPc2/pro (300 μg/kg/day);
7) CT26/rNAPc2/pro (1 mg/kg/day);
8) CT26/rNAPc2/pro (2.5 mg/kg/day); and
9) CT26/LOVENOX® (1.5 mg/kg/day, IP injection).
On day 11, the lungs were surgically removed, weighed and the number of lung surface metastases were counted in a blinded fashion. The other internal organs were examined for signs of hemorrhage. […] In some of the mice, no lung surface metastases were observed (Table 1). rNAPc2/pro was well-tolerated up to 2.5 mg/kg/day in mice with no hemorrhage-related mortality. […] No significant difference in animal body weight was observed between all experimental groups.

[5] = test system: intestinal adenomas and adenocarcinomas; test: murine spontaneous intestinal neoplasia mouse model (Min mouse)
Description: To determine the effect of rNAPc2/pro in treating intestinal adenomas and adenocarcinomas, a murine spontaneous intestinal neoplasia mouse model was used: the Min mouse (The Jackson Laboratory, Bar Harbor, Me., USA).
Four to five week old Apc^Min/+ or syngenic wild-type control (age- and sex-matched) were randomized into various treatment conditions and the treatment regimens lasted for 10 to 11 weeks.
The mice were treated as follows:
1) Wild-type/vehicle control (3 mice);
2) Wild-type/rNAPc2/pro (100 μg/kg, daily IP injection) (3 mice);
3) Apc^Min/+/vehicle control (6 mice);
4) Apc^Min/+/rNAPc2/pro (6 mice); and
5) Apc^Min/+/LOVENOX® (500 μg/kg, daily IP injection) (6 mice).
The mice were monitored every-other-day for body weight, signs of morbidity (i.e. hemorrhage) and mortality. On week 16, the intestines were removed, separated into proximal, middle and distal small intestine and colon, formed into “Swiss rolls” and processed for analysis. Mice were injected with 4 mg/mouse BrdU 2 h prior to harvest.

angiogenesis = conditions: Hembrough et al., Cancer Res. 63:2997-3000 (2003); cited from earlier work
Factor Xa = molecular target: T2, Factor Xa (Homo sapiens, UniProt P00742); conditions: selective = at least 10-fold higher potency than on related enzymes; cited from earlier work
T2 construct: made in house
T2 sequence (P00742 235-488 limits assumed): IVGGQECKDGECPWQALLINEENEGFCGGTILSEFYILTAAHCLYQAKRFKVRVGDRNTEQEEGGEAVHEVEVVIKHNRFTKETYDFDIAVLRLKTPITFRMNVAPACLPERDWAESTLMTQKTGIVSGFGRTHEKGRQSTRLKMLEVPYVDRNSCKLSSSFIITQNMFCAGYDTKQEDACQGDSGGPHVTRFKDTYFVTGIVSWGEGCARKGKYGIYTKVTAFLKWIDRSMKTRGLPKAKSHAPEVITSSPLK
T2 sequence (P00742 41-179 limits assumed): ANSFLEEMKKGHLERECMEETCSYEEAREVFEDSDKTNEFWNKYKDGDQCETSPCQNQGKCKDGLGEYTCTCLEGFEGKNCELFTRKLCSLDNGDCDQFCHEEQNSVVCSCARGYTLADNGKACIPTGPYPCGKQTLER

T1 sequence (P08709 213-466 limits assumed): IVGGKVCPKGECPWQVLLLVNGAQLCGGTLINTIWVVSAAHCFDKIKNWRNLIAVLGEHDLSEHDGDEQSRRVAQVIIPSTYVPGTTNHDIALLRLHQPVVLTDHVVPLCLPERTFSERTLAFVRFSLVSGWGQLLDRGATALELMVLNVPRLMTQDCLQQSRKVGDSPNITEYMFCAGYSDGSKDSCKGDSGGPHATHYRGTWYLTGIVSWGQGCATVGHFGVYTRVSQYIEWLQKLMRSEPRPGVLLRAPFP
T1 sequence (P08709 61-212 limits assumed): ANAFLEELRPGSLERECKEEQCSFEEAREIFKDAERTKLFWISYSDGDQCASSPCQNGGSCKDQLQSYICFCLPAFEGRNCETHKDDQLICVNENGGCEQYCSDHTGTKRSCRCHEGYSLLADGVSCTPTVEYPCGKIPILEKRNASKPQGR
T1 sequence (P13726 33-295): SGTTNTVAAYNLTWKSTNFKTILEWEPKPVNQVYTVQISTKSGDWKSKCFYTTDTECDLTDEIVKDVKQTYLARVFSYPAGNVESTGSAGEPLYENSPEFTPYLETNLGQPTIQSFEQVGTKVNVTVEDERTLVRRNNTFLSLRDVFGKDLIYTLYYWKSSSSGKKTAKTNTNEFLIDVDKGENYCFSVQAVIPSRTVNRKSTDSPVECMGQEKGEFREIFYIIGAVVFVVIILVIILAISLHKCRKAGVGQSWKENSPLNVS
T1 sequence (P00742 235-488 partner limits assumed): as the sequence (P00742 235-488 limits assumed) above
T1 sequence (P00742 41-179 partner limits assumed): as the sequence (P00742 41-179 limits assumed) above

O=c1[nH]cc(F)c(=O)[nH]1 [5-FU, 5-fluorouracil, reference compound]
tumor weight reduced by, compared to vehicle control [1]: 41%

CCc1c2c(nc3ccc(OC(=O)N4CCC(N5CCCCC5)CC4)cc13)-c1cc3c(c(=O)n1C2)COC(=O)[C@]3(O)CC [CPT-11, irinotecan, reference compound]
Hepatic metastasis-free events [2]: 0%

AVASTIN®: anti-VEGF antibody bevacizumab (Genentech) [reference compound]
tumor weight reduced by, compared to vehicle control [1]: 63%

TFPI: reported with rNAPc2 by Hembrough et al. to decrease tumor growth in mouse models [reference compound]
growth of lung carcinoma tumors and melanoma tumors [3]: allegedly decrease the growth

B1: rNAPc2/pro: recombinant protein having the amino acid sequence of rNAPc2 modified to add a proline residue to the C-terminus (SEQ ID NO: 4) (protein, listed as Ancylostoma caninum)
chain: KATMQCGENEKYDSCGSKECDKKCKYDGVEEEDDEEPNVPCLVRVCHQDCVCEEGFYRNKDDKCVSAEDCELDNMDFIYPGTRNP
tumor weight reduced by, compared to vehicle control [1]: 31% | tolerability (hemorrhage or other adverse effects) ([1]; doses and dosing regimens of rNAPc2/pro used in the murine model of colorectal cancer): well tolerated by the recipient mice without major complications of hemorrhage or other adverse effects | selective inhibition of the fVIIa/TF complex (fVIIa/TF complex): selective inhibition of the fVIIa/TF complex | Number of mice with no observable lung surface metastases ([4]; 10 μg/kg/day, day 11): 1 | Number of mice with no observable lung surface metastases ([4]; 30 μg/kg/day, day 11): 0 | Number of mice with no observable lung surface metastases ([4]; 100 μg/kg/day, day 11): 1 | Number of mice with no observable lung surface metastases ([4]; 300 μg/kg/day, day 11): 1 | Number of mice with no observable lung surface metastases ([4]; 1 mg/kg/day, day 11): 0 | local hemorrhage in internal organs ([4]; 2.5 mg/kg rNAPc2/pro, 1.5 mg/kg LOVENOX, some of the mice): some local hemorrhage was noticed in internal organs | Number of mice with no observable lung surface metastases ([4]; 2.5 mg/kg/day, day 11): 1 | number of lung surface metastases ([4]; compared to saline control mice, dose-dependent (10 μg/kg/day to 2.5 mg/kg/day), day 11, FIG. 8): reduced the number of lung surface metastases | lung mass ([4]; compared to saline control mice, dose-dependent, day 11, FIG. 9): reduced lung mass | dose well-tolerated with no hemorrhage-related mortality ([4]; mice, 11 days of treatment): up to 2.5 mg/kg/day | number of liver surface metastases ([2]; 300 μg/kg daily IP for 28 days, compared to vehicle control mice, day 42, FIG. 10): reduced the number of liver surface metastases | liver mass ([2]; 300 μg/kg daily IP for 28 days, compared to vehicle control mice, day 42, FIG. 11): reduced liver mass | Hepatic metastasis-free events [2]: 0% | effect with CPT-11 in inhibiting hepatic metastases ([2]; rNAPc2/pro 300 μg/kg daily IP in combination with CPT-11 100 mg/kg once-weekly IP): synergistic effect

B2: rNAPc2: recombinant protein of the NAP family, single chain, non-glycosylated 85 amino acid protein (SEQ ID NO: 3) (protein, listed as Ancylostoma caninum)
chain: KATMQCGENEKYDSCGSKECDKKCKYDGVEEEDDEEPNVPCLVRVCHQDCVCEEGFYRNKDDKCVSAEDCELDNMDFIYPGTRN
selective inhibition of the fVIIa/TF complex (fVIIa/TF complex): selective inhibition of the fVIIa/TF complex | formation of intestinal adenomas and adenocarcinomas ([5]; Apc^Min/+ mice, 100 μg/kg daily IP, long-term administration (10 to 11 weeks), analysis on week 16): suppressed formation of intestinal adenomas and adenocarcinomas | tolerability (major hemorrhage or other adverse effects) ([5]; dosing regimens used in these studies, recipient mice): well-tolerated up to a three month period | inhibition of angiogenesis (angiogenesis): potent inhibitor of angiogenesis | growth of lung carcinoma tumors and melanoma tumors [3]: allegedly decrease the growth

B3: NAP6: 75-amino acid NAP protein (SEQ ID NO: 2) originally isolated from the hookworm Ancylostoma caninum (protein, listed as Ancylostoma caninum)
chain: LAYPECGENEWLDVCGTKKPCEAKCSEEEEEDPICRSFSCPGPAACVCEDGFYRDTVIGDCVKEEECDQHEIIHV
selective inhibition of Factor Xa (Factor Xa): selective inhibition of Factor Xa

B4: NAP5: 77-amino acid NAP protein (SEQ ID NO: 1) originally isolated from the hookworm Ancylostoma caninum (protein, listed as Ancylostoma caninum)
chain: KAYPECGENEWLDDCGTQKPCEAKCNEEPPEEEDPICRSRGCLLPPACVCKDGFYRDTVIGDCVREEECDQHEIIHV
selective inhibition of Factor Xa (Factor Xa): selective inhibition of Factor Xa
